Data as given in patent US8598081B2, “Specific delivery of agrochemicals” (priority 2010, dated 2013).

T1: potato lectin (Solanum tuberosum, UniProt Q9S8M0)
T1 construct: purchased Sigma
T1 sequence (Q9S8M0 whole entry, looked up): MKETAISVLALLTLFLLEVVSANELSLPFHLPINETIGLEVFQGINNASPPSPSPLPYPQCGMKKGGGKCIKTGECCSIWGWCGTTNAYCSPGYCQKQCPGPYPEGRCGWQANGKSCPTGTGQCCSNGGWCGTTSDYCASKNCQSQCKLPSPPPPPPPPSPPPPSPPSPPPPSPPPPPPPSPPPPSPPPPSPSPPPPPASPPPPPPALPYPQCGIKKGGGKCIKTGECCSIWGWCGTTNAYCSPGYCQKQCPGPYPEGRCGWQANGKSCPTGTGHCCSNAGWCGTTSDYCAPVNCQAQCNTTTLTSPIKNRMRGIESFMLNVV

B1: VHH 3E6: VHH binding gum arabic, potato lectin and leaf surface; SEQ ID NO:7 by order of the list (protein, listed as Lama glama)
VHH: QVQLQESGGGLVQPGGTLSLSCAASGFNVRWYGMGWFRQAPGKEREGVACISALQETTAYADSVKGRFTLSRDNPKNTLSLQMNNLQPEDTGVYYCATTDCDDSSRMTYTSYLGQGTQVTVSS
modifications: 3E6
B2: Microcapsules containing uvitex OB VHH 3E6: polyurea microcapsules containing the fluorescent tracer Uvitex OB, coupled with (monovalent) VHH 3E6 (conjugate)
VHH: B1 VHH
modifications: left off: small tags and cut ends
notes: polyurea microcapsules containing the fluorescent tracer Uvitex OB, coupled with (monovalent) VHH 3E6

How the values were obtained:
potato lectin = target: T1, potato lectin; test: VHH binding to potato lectin in ELISA; conditions: Table 2; Blank (no antigen coating); VHH 3 μg/ml
Procedure: ELISA plates (Maxisorp, Nunc) coated with 100 μl per well 100 μg/ml potato lectin (Sigma) in PBS were coated at 4° C. overnight and coating was continued at room temperature for 1 hour on the next day. Plates were washed three times with PBS/0.05%-TWEEN®-20 and blocked with 5% skimmed milk in PBS for 1 hour. VHH (3 μg/ml) were transferred to the potato lectin-coated plates and VHH antibody fragments were allowed to bind for 1 hour at room temperature. Bound VHH were detected with sequential incubations with monoclonal mouse anti-histidine antibodies (Abd Serotec) and rabbit anti-mouse IgG whole molecule antibodies conjugated with alkaline phosphatase (RaM/AP) (Sigma) in 1% MPBS/0.05%-TWEEN®-20. Unbound antibodies were removed by washing three times with PBS/0.05%-TWEEN®-20 after each antibody incubation. The plates were washed an additional two times with PBS and 100 μl pNPP disodium hexahydrate substrate (Sigma) was added to each well and the absorbance at 405 nm was measured (see Table 2).

[1] = system: intact living potato pot plants; test: VHH binding to intact living plants; set-up: species or system potato (variety Desiree); conditions: in PBS; 1 hour; FIG. 2: 5 μg/ml
Procedure: Binding of VHH to intact living plants was investigated on potato pot plants (variety Desiree). Compound leaves of intact living plants were submersed in solutions of hexahistidine-tagged VHH in PBS, or PBS alone for control conditions, leaving the compound leaves attached to the plants. VHH were allowed to bind for 1 hour. Next, the compound leaves still attached to the plants were washed five times in PBS in Erlenmeyer flasks. Different leaves and petiole sections were sampled. Bound VHH were detected by incubation with monoclonal mouse anti-histidine antibodies directly conjugated with Alexa-488 fluorescent dye (Abd Serotec) in PBS for 1 hour. Unbound anti-histidine antibodies were removed by washing five times with PBS. Whole leaves, leaf discs, or petiole sections were analyzed for bound VHH with microscopy.

potato leaf discs = test: VHH binding at different pH, leaf dip experiment; set-up: species or system potato (variety Desiree); conditions: whole range tested from pH 2 to pH 11; 5 μg/ml; 1 hour
Procedure: In order to test applicability of VHH as binders for greenhouse or field applications where binding supposedly may occur at pH-values, deviating strongly from physiological conditions in which antibodies naturally bind their targets, a leaf dip VHH binding experiment was carried out in a series of solutions with different pH. The following solutions were prepared: 50 mM glycine pH 2.0, 50 mM sodium acetate pH 4.0, 50 mm sodium carbonate pH 9.6, and 10 mM sodium hydroxide pH […] 8 mm potato leaf discs (variety Desiree) were cut using a puncher tool. The leaf discs were first equilibrated to the different pH by washing three times with solutions at different pH. Hexahistidine-tagged VHH were diluted to 5 μg/ml in solutions with different pH, added to the corresponding equilibrated leaf discs, and binding of VHH was allowed for 1 hour. After incubation with VHH, leaf discs were washed three times with solutions at the corresponding different pH. After that, all were washed two times with PBS to equilibrate leaf discs to PBS. Bound VHH were detected by incubation with monoclonal mouse anti-histidine antibodies directly conjugated with Alexa-488 fluorescent dye (Abd Serotec) in PBS for 1 hour. Unbound anti-histidine antibodies were removed by washing five times with PBS. Leaf discs were analyzed for bound VHH with microscopy.

[2] = system: gum arabic or potato lectin; test: Lambda cyhalothrin amount in wells with bound microcapsules, GC/MS-MS; format: binding; conditions: VHH coupled to lambda cyhalothrin microcapsules
Procedure: An ELISA-like assay setup was used to evaluate the interaction of VHH-coupled microcapsules to antigen-containing surfaces. ELISA plates (Maxisorp (Thermo Scientific Nunc) or high bind half area microplates (Greiner Bio-One)) were coated with gum arabic or potato lectin. Coatings were performed overnight with 100 μg/ml gum arabic or potato lectin in PBS. Control wells included blank wells or wells coated with unrelated antigens. Plates were washed three times with PBS with 0.05%-TWEEN®-20 and blocked with 5% skimmed milk in PBS for 1 to 2 hours. VHH-coupled lambda cyhalothrin-containing or Uvitex-containing microcapsules were diluted to appropriate densities in 1% skimmed milk in PBS with 0.05%-TWEEN®-20. Microcapsules were added to the antigen-coated or control wells and allowed to bind for 1 hour. Unbound microcapsules were removed by washing five times with PBS with 0.05%-TWEEN®-20. The bottoms of ELISA plate wells were analyzed for bound microcapsules on a macrozoom microscope system (Nikon). Microcapsules were counted using Volocity image analysis software (Perkin Elmer). A DAPI filter was used to visualize Uvitex microcapsules. […]
In another experiment, lambda cyhalothrin amounts were also determined analytically. […] The amount of lambda cyhalothrin was determined by GC/MS-MS analysis in comparison with calibration solutions. […]

grass leaf discs = test: Leaf disc binding assay with VHH-coupled microcapsules, grass; set-up: species or system Lollium perenne; conditions: Uvitex microcapsules
Procedure: A leaf disc binding assay was used to evaluate the interaction of VHH-coupled microcapsules with potato, grass and azalea leaves. ø 8 mm leaf discs were sampled from the leaves of potato pot plants (variety Desiree), from the leaves of greenhouse-grown Lollium perenne and from the leaves of azalea pot plants. Leaf discs were washed three times with PBS. Microcapsules containing lambda cyhalothrin or Uvitex were diluted to appropriate densities in 1% skimmed milk in PBS with 0.05%-TWEEN®-20. Microcapsules were added to the leaf discs and settling of microcapsules and binding of targeting agents allowed for 1 hour. Unbound microcapsules were removed by washing three to five times with PBS with 0.05%-TWEEN®-20.
Leaf discs with Uvitex microcapsules were analyzed for bound microcapsules on a macrozoom microscope system (Nikon). Microcapsules were counted using Volocity image analysis software (Perkin Elmer). A DAPI filter was used to visualize Uvitex microcapsules. Controls for Uvitex microcapsules included blank microcapsules to which no VHH were coupled and microcapsules to which unrelated VHH were coupled.

| Molecule | absorbance at 405 nm (potato lectin) | binding to intact living plant (leaves attached to potato pot plant submerged in VHH solution) [1] | binding to leaf discs at different pH (potato leaf discs) | increase of amounts of lambda cyhalothrin in wells coated with antigen compared to blank microcapsules [2] [fold] | increase of amounts of lambda cyhalothrin over blank wells not coated with antigen [2] [fold] | more microcapsules bound to leaf surfaces compared to blank microcapsules (grass leaf discs) | more microcapsules bound to leaf surfaces compared to microcapsules coupled with unrelated VHH (grass leaf discs) |
| --- | --- | --- | --- | --- | --- | --- | --- |
| B1 | 0.067 | binding leaf surface, stomata, glandular trichomes, and leaf hairs | detectable binding | 23 | 27 | – | – |
| B2 | – | – | – | – | – | three-fold | two-fold |
